Results from patent publication US20230374147A1 (HUMMINGBIRD BIOSCIENCE PTE, published 2023).
Positions count from the first letter of the chain named.

Legend:
[1] = molecular target: T1, Human BCMA-His (Sino Biological, 10620-H08H) (human, UniProt Q02223 1-54); assay: ELISA, coated Human BCMA-His
T1 construct: not shown: His tag
T1 sequence: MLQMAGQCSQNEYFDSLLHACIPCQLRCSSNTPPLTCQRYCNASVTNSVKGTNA

[2] = molecular target: T2, Human HER3-His (Sino Biological, 10201-H08H) (human, UniProt P21860 20-643); assay: ELISA, coated Human HER3-His
T2 construct: Specificity control; also called Human HERS-His

[3] = molecular target: T3, His-tagged human BCMA (Acro Biosystems, Cat. #BCA-H522y) (human, UniProt Q02223 1-54); assay: ELISA, coated His-tagged human BCMA
T3 construct: also called huBCMA; P1; not shown: His tag
T3 sequence: T1 sequence

[4] = molecular target: T4, recombinant his-tagged human TACI (Sinobiological cat #11937-H08H) (human, UniProt O14836 1-165); assay: ELISA, coated His-tagged human TACI
T4 construct: Bought protein; also called Human TACI-His; huTACI; not shown: His tag
T4 sequence: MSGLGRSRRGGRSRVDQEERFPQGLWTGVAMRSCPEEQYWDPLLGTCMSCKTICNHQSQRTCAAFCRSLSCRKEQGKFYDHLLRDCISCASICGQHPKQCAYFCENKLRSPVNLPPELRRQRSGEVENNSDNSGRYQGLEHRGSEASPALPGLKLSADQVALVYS

[5] = molecular target: T3, His-tagged human BCMA (Acro Biosystems, …); assay: ELISA, coated His-tagged human BCMA; remark: listed apart in the source
BCMA Mut = molecular target: T5, BCMA Mut (human, UniProt Q02223 1-184); assay: flow cytometry on HEK293T cells expressing BCMA Mut
T5 construct: Expressed on HEK293T cells; also called human BCMA comprising the substitutions Y13A, D15A, L17G and L18G
T5 chain: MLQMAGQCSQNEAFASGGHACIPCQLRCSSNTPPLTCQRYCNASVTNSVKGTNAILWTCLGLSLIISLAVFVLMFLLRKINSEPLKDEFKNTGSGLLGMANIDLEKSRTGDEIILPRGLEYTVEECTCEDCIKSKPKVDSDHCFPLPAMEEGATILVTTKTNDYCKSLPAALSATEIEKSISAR

[6] = molecular target: T6, His-tagged mouse BCMA (Acro Biosystems, BCA-M52H3) (mouse, UniProt O88472 1-49); assay: BLI, His-tagged mouse BCMA on HIS1K tip
T6 construct: Bought protein; not shown: His tag
T6 chain: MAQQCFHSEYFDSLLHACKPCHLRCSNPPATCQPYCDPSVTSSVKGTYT

[7] = molecular target: T7, His-tagged cynomolgous macaque BCMA (Acro Biosystems, BCA-C52H7) (cynomolgus macaque, UniProt Q02223 1-54 (human entry)); assay: ELISA, coated His-tagged cynomolgus BCMA
T7 construct: Bought protein; also called cyno BCMA; CyBCMA; not shown: His tag

[8] = molecular target: T8, human BCMA expressed on cells (human, UniProt Q02223 1-184); assay: flow cytometry, H929 cells (BCMA-expressing)
T8 construct: the cell line is named under assay; also called wildtype human BCMA
T8 sequence: T5 chain with A13Y, A15D, G17L, G18L

[9] = molecular target: T3, His-tagged human BCMA (Acro Biosystems, …); assay: BLI, His-tagged human BCMA on HIS1K tip; R2 0.9957
[10] = molecular target: T8, human BCMA expressed on cells; assay: flow cytometry, HEK 293 cells expressing human BCMA
[11] = molecular target: T7, His-tagged cynomolgous macaque BCMA …; assay: BLI, His-tagged cynomolgus BCMA on HIS1K tip; R2 0.9963
[12] = molecular target: T3, His-tagged human BCMA (Acro Biosystems, …); assay: BLI, His-tagged human BCMA on HIS1K tip, no APRIL; R2 0.9957
[13] = molecular target: T9, human TACI expressed on cells (human, UniProt O14836 1-293); assay: flow cytometry, HEK 293 cells transiently expressing human TACI
T9 construct: also called wildtype human TACI
T9 sequence: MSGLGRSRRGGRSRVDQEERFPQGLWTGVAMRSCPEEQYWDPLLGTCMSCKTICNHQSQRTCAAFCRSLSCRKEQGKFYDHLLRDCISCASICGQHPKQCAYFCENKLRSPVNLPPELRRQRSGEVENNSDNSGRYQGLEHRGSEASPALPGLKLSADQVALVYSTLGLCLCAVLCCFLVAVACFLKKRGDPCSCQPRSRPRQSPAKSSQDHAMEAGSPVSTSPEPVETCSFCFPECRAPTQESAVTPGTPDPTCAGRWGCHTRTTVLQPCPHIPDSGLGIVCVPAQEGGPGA

[14] = molecular target: T8, human BCMA expressed on cells; assay: flow cytometry, fixed RPMI 8226 cells (BCMA+, TACI+: the cells carry both targets)
[15] = molecular target: T3, His-tagged human BCMA (Acro Biosystems, …); assay: competition ELISA: His-tagged human BCMA binding to coated APRIL-Fc in the presence of the antibody
[16] = molecular target: T3, His-tagged human BCMA (Acro Biosystems, …); assay: as above; remark: listed apart in the source

B1: J6M0 (antibody, V domains shown)
VH: QVQLVQSGAEVKKPGSSVKVSCKASGGTFSNYWMHWVRQAPGQGLEWMGATYRGHSDTYYNQKFKGRVTITADKSTSTAYMELSSLRSEDTAVYYCARGAIYDGYDVLDNWGQGTLVTVSS
VL: DIQMTQSPSSLSASVGDRVTITCSASQDISNYLNWYQQKPGKAPKLLIYYTSNLHSGVPSRFSGSGSGTDFTLTISSLQPEDFATYYCQQYRKLPWTFGQGTKLEIK
notes: also called J6M0-hIgG1; anti-BCMA
With B1 the EC50 [1] was 0.018 nM, the binding result [2] was “no binding (tested: log M about -7.7 (3 ug/ml per paragraph 742))” and the “EC50 (read off the curve)” value [3] was ~7 ng/mL. For the same binder, the binding result [4] was “no binding (tested: 10 ug/ml)”, the EC50 [5] was 0.044 nM and the binding result (BCMA Mut) was “binds”. For the same binder, the “Mouse BCMA response” value [6] was 0.0423, the “EC50 (read off the curve)” value [7] was ~0.01 µg/mL and the “EC50 (read off the curve)” value [8] was ~1 µg/mL. The Kd [9] was < 1 pM, the EC50 [10] was 10.1 nM and the Kd [11] was < 1 pM. The Kd [12] was < 1 pM, the binding result [13] was “no binding (tested: 10 ug/ml)” and the EC50 [14] was ~9.61 nM. For the same binder, the “IC50 (read off the curve)” value [15] was ~0.5 µg/mL and the IC50 [16] was 0.92 nM.
